Results taken from PMC4651853 (DNA repair, 2015).
“And” between values parts separate entries of the source, which are not always exact repeats. Equal entries are not always repeated.

B1: MutS (natural protein, E. coli, UniProt P23909 1-853, looked up)
chain: MSAIENFDAHTPMMQQYLRLKAQHPEILLFYRMGDFYELFYDDAKRASQLLDISLTKRGASAGEPIPMAGIPYHAVENYLAKLVNQGESVAICEQIGDPATSKGPVERKVVRIVTPGTISDEALLQERQDNLLAAIWQDSKGFGYATLDISSGRFRLSEPADRETMAAELQRTNPAELLYAEDFAEMSLIEGRRGLRRRPLWEFEIDTARQQLNLQFGTRDLVGFGVENAPRGLCAAGCLLQYAKDTQRTTLPHIRSITMEREQDSIIMDAATRRNLEITQNLAGGAENTLASVLDCTVTPMGSRMLKRWLHMPVRDTRVLLERQQTIGALQDFTAGLQPVLRQVGDLERILARLALRTARPRDLARMRHAFQQLPELRAQLETVDSAPVQALREKMGEFAELRDLLERAIIDTPPVLVRDGGVIASGYNEELDEWRALADGATDYLERLEVRERERTGLDTLKVGFNAVHGYYIQISRGQSHLAPINYMRRQTLKNAERYIIPELKEYEDKVLTSKGKALALEKQLYEELFDLLLPHLEALQQSASALAELDVLVNLAERAYTLNYTCPTFIDKPGIRITEGRHPVVEQVLNEPFIANPLNLSPQRRMLIITGPNMGGKSTYMRQTALIALMAYIGSYVPAQKVEIGPIDRIFTRVGAADDLASGRSTFMVEMTETANILHNATEYSLVLMDEIGRGTSTYDGLSLAWACAENLANKIKALTLFATHYFELTQLPEKMEGVANVHLDALEHGDTIAFMHSVQDGAASKSYGLAVAALAGVPKEVIKRARQKLRELESISPNAAATQVDGTQMSLLSVPEETSPAVEALENLDPDSLTPRQALEWIYRLKSLV
B2: his-MutL (natural protein, E. coli, UniProt P23367 1-615, looked up)
chain: MPIQVLPPQLANQIAAGEVVERPASVVKELVENSLDAGATRIDIDIERGGAKLIRIRDNGCGIKKDELALALARHATSKIASLDDLEAIISLGFRGEALASISSVSRLTLTSRTAEQQEAWQAYAEGRDMNVTVKPAAHPVGTTLEVLDLFYNTPARRKFLRTEKTEFNHIDEIIRRIALARFDVTINLSHNGKIVRQYRAVPEGGQKERRLGAICGTAFLEQALAIEWQHGDLTLRGWVADPNHTTPALAEIQYCYVNGRMMRDRLINHAIRQACEDKLGADQQPAFVLYLEIDPHQVDVNVHPAKHEVRFHQSRLVHDFIYQGVLSVLQQQLETPLPLDDEPQPAPRSIPENRVAAGRNHFAEPAAREPVAPRYTPAPASGSRPAAPWPNAQPGYQKQQGEVYRQLLQTPAPMQKLKAPEPQEPALAANSQSFGRVLTIVHSDCALLERDGNISLLSLPVAERWLRQAQLTPGEAPVCAQPLLIPLRLKVSAEEKSALEKAQSALAELGIDFQSDAQHVTIRAVPLPLRQQNLQILIPELIGYLAKQSVFEPGNIAQWIARNLMSEHAQWSMAQAITLLADVERLCPQLVKTPPGGLLQSVDLHPAIKALKDE

Columns and labels:
atomic force microscopy = target: the molecule itself; experiment: atomic force microscopy
MutS = target: B1; experiment: atomic force microscopy

Row | Binder | stoichiometry N (atomic force microscopy) | binding result (MutS)
1 | B1 | 2 and 4 | 
2 | B2 |  | binds
